Laboratory results published in publication PMC10786891, “Massively parallel profiling of RNA-targeting CRISPR-Cas13d”.
Substitutions are numbered along the chain they refer to. Names may count otherwise.

T1: EsCas13d, nuclease-dead (Eubacterium siraeum, UniProt B0MS50, R295A;H300A;R849A;H854A)
T1 sequence: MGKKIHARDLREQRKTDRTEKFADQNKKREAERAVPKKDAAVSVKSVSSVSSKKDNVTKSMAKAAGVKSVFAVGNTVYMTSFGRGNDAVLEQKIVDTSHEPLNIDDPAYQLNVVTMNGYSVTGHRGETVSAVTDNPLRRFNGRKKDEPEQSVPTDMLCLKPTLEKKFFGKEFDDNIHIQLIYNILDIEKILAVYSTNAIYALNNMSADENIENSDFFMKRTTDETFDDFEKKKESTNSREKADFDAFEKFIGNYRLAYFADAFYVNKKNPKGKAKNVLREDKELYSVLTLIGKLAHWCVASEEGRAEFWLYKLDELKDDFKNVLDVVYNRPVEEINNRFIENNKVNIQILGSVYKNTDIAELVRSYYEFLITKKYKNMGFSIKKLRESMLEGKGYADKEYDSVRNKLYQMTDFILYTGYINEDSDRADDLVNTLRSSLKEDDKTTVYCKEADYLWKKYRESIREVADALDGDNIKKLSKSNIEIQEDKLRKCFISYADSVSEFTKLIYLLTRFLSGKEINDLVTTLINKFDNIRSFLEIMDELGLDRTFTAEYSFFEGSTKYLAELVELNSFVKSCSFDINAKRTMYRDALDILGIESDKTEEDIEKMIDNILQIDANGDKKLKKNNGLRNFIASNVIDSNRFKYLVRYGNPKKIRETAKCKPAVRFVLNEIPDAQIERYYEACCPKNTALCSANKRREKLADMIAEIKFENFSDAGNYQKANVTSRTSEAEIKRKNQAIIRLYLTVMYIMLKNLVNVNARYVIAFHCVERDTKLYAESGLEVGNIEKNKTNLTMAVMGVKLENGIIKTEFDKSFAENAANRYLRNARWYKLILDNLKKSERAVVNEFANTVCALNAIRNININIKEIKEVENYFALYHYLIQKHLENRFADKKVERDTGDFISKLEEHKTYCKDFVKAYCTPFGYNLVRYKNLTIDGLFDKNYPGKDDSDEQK

B1: target 2 MT 5'PFS GAA 3'PFS CGA (mixed)
RNA 1: CACCCGUGCAAAAUUGCAGGGGUCUAAAACCUUCUCCAAAUUGUUUCAUCCU
RNA 2: GGGAAUGGAUCCACAUCUACGAAUUCGAAAGGAUGAAACAAUUUGGAGAAGCGAAGAUCGGAAGAGCACACGU
B2: target 2 MT 5'PFS CGG 3'PFS AUC (mixed)
RNA 1: B1 RNA 1
RNA 2: B1 RNA 2 with G27C, A28G, A29G, C52A, G53U, A54C
B3: target 2 MT 5'PFS UCA 3'PFS UGU (mixed)
RNA 1: B1 RNA 1
RNA 2: B1 RNA 2 with G27U, A28C, C52U, A54U
B4: target 2 MT 5'PFS GAA 3'PFS CGC (mixed)
RNA 1: B1 RNA 1
RNA 2: B1 RNA 2 with A54C
B5: target 2 MT 5'PFS AUG 3'PFS CGC (mixed)
RNA 1: B1 RNA 1
RNA 2: B1 RNA 2 with G27A, A28U, A29G, A54C
B6: target 2 MT 5'PFS GAA 3'PFS UUU (mixed)
RNA 1: B1 RNA 1
RNA 2: B1 RNA 2 with C52U, G53U, A54U
B7: target 2 MT 5'PFS CUU 3'PFS CCC (mixed)
RNA 1: B1 RNA 1
RNA 2: B1 RNA 2 with G27C, A28U, A29U, G53C, A54C
B8: target 2 MT 5'PFS GCU 3'PFS CUA (mixed)
RNA 1: B1 RNA 1
RNA 2: B1 RNA 2 with A28C, A29U, G53U
B9: target 2 MT 5'PFS AAG 3'PFS AUC (mixed)
RNA 1: B1 RNA 1
RNA 2: B1 RNA 2 with G27A, A29G, C52A, G53U, A54C
B10: target 2 MT 5'PFS UGA 3'PFS ACU (mixed)
RNA 1: B1 RNA 1
RNA 2: B1 RNA 2 with G27U, A28G, C52A, G53C, A54U
B11: target 2 MT 5'PFS GUA 3'PFS CUG (mixed)
RNA 1: B1 RNA 1
RNA 2: B1 RNA 2 with A28U, G53U, A54G
B12: target 2 MT 5'PFS UGA 3'PFS ACC (mixed)
RNA 1: B1 RNA 1
RNA 2: B1 RNA 2 with G27U, A28G, C52A, G53C, A54C
B13: target 2 MT 5'PFS UGA 3'PFS ACG (mixed)
RNA 1: B1 RNA 1
RNA 2: B1 RNA 2 with G27U, A28G, C52A, G53C, A54G
B14: target 2 MT 5'PFS GAG 3'PFS AAU (mixed)
RNA 1: B1 RNA 1
RNA 2: B1 RNA 2 with A29G, C52A, G53A, A54U
B15: target 2 MT 5'PFS GAA 3'PFS AUU (mixed)
RNA 1: B1 RNA 1
RNA 2: B1 RNA 2 with C52A, G53U, A54U
B16: target 2 MT 5'PFS AGG 3'PFS AAA (mixed)
RNA 1: B1 RNA 1
RNA 2: B1 RNA 2 with G27A, A28G, A29G, C52A, G53A
B17: target 2 MT 5'PFS UUA 3'PFS AAC (mixed)
RNA 1: B1 RNA 1
RNA 2: B1 RNA 2 with G27U, A28U, C52A, G53A, A54C
B18: target 2 MT 5'PFS UGA 3'PFS AGC (mixed)
RNA 1: B1 RNA 1
RNA 2: B1 RNA 2 with G27U, A28G, C52A, A54C
B19: target 2 MT 5'PFS UGA 3'PFS ACA (mixed)
RNA 1: B1 RNA 1
RNA 2: B1 RNA 2 with G27U, A28G, C52A, G53C
B20: target 2 MT 5'PFS AUU 3'PFS ACC (mixed)
RNA 1: B1 RNA 1
RNA 2: B1 RNA 2 with G27A, A28U, A29U, C52A, G53C, A54C
B21: target 2 MT 5'PFS CGG 3'PFS AUU (mixed)
RNA 1: B1 RNA 1
RNA 2: B1 RNA 2 with G27C, A28G, A29G, C52A, G53U, A54U
B22: target 2 MT 5'PFS CUU 3'PFS CCG (mixed)
RNA 1: B1 RNA 1
RNA 2: B1 RNA 2 with G27C, A28U, A29U, G53C, A54G
B23: target 2 MT 5'PFS GUA 3'PFS CUA (mixed)
RNA 1: B1 RNA 1
RNA 2: B1 RNA 2 with A28U, G53U
B24: target 2 MT 5'PFS CGG 3'PFS AUA (mixed)
RNA 1: B1 RNA 1
RNA 2: B1 RNA 2 with G27C, A28G, A29G, C52A, G53U
B25: target 2 MT 5'PFS UUA 3'PFS AAG (mixed)
RNA 1: B1 RNA 1
RNA 2: B1 RNA 2 with G27U, A28U, C52A, G53A, A54G
B26: target 2 MT 5'PFS AAU 3'PFS AAU (mixed)
RNA 1: B1 RNA 1
RNA 2: B1 RNA 2 with G27A, A29U, C52A, G53A, A54U
B27: target 2 MT 5'PFS AAG 3'PFS AUU (mixed)
RNA 1: B1 RNA 1
RNA 2: B1 RNA 2 with G27A, A29G, C52A, G53U, A54U
B28: target 2 MT 5'PFS UUA 3'PFS AAA (mixed)
RNA 1: B1 RNA 1
RNA 2: B1 RNA 2 with G27U, A28U, C52A, G53A
B29: target 2 MT 5'PFS GUA 3'PFS CUU (mixed)
RNA 1: B1 RNA 1
RNA 2: B1 RNA 2 with A28U, G53U, A54U
B30: target 2 MT 5'PFS UAU 3'PFS UCU (mixed)
RNA 1: B1 RNA 1
RNA 2: B1 RNA 2 with G27U, A29U, C52U, G53C, A54U
B31: target 2 MT 5'PFS GUA 3'PFS CUC (mixed)
RNA 1: B1 RNA 1
RNA 2: B1 RNA 2 with A28U, G53U, A54C
B32: target 2 MT 5'PFS AUU 3'PFS ACA (mixed)
RNA 1: B1 RNA 1
RNA 2: B1 RNA 2 with G27A, A28U, A29U, C52A, G53C
B33: target 2 MT 5'PFS UUA 3'PFS AAU (mixed)
RNA 1: B1 RNA 1
RNA 2: B1 RNA 2 with G27U, A28U, C52A, G53A, A54U
B34: target 2 MT 5'PFS UUC 3'PFS CCC (mixed)
RNA 1: B1 RNA 1
RNA 2: B1 RNA 2 with G27U, A28U, A29C, G53C, A54C
B35: target 2 MT 5'PFS CUU 3'PFS CCA (mixed)
RNA 1: B1 RNA 1
RNA 2: B1 RNA 2 with G27C, A28U, A29U, G53C
B36: target 1 U11G,A16U (mixed)
RNA 1: CACCCGUGCAAAAAUGCAGGGGUCUAAAACUGAGCGGAUAACCUCUCUAUGG
RNA 2: GGGAAUGGAUCCACAUCUACGAAUUCGUACCAUAGUGAGGGUAUCCGCUCACCGAGAUCGGAAGAGCACACGU
B37: target 1 C7A,U10C (mixed)
RNA 1: B36 RNA 1
RNA 2: B36 RNA 2 with U36A, G41U, U42C, C45A
B38: target 1 insU 3' of 9,insG 3' of 8 (mixed)
RNA 1: B36 RNA 1
RNA 2: GGGAAUGGAUCCACAUCUACGAAUUCGUACCAUAGAGAGGUUAUUGCCGCUCACCGAGAUCGGAAGAGCACACGU

Each binder was assayed against T1, EsCas13d, nuclease-dead (assay: crRNA (strand 1, pre-loaded); Mg2+; 40 mM Tris-HCl pH 7.5, 150 mM NaCl, 6 mM MgCl2, 1 mM DTT, 0.1% Tween-20, 0.2 mg/ml BSA; 25 C; 10 min per concentration, then washed). Conditions: tags: His6-TwinStrep-SUMO cleaved; N-terminal SNAP kept (SNAP-Surface 488); label: 3' end held by stalled T7 RNA polymerase.

Binder | Kd
B1 | 9.2 ± 1.7 nM
B2 | 6.8 ± 1.1 nM
B3 | 7.8 ± 1.1 nM
B4 | 7.4 ± 0.5 nM
B5 | 8.1 ± 0.8 nM
B6 | 24 ± 4 nM
B7 | 18 ± 9 nM
B8 | 17 ± 5 nM
B9 | 5.2 ± 0.9 nM
B10 | 15.6 ± 3.5 nM
B11 | 11.1 ± 1.2 nM
B12 | 16 ± 4 nM
B13 | 11.6 ± 1.9 nM
B14 | 5.6 ± 0.7 nM
B15 | 7.3 ± 1.1 nM
B16 | 4.3 ± 0.9 nM
B17 | 18.7 ± 3.1 nM
B18 | 6 ± 0.9 nM
B19 | 9.1 ± 1 nM

Binder | Kd
B20 | 15.2 ± 3.1 nM
B21 | 4.01 ± 0.28 nM
B22 | 6 ± 0.4 nM
B23 | 6.5 ± 0.6 nM
B24 | 4.1 ± 0.5 nM
B25 | 17.5 ± 1.8 nM
B26 | 4.1 ± 0.6 nM
B27 | 4.1 ± 0.5 nM
B28 | 14.6 ± 2.7 nM
B29 | 10.2 ± 1 nM
B30 | 81 ± 23 nM
B31 | 15.5 ± 2.6 nM
B32 | 9.5 ± 2 nM
B33 | 18 ± 5 nM
B34 | ~29 nM
B35 | 8.9 ± 1.1 nM
B36 | 82 ± 12 nM
B37 | 13.6 ± 0.7 nM
B38 | 8.3 ± 0.5 nM
